From patent publication US20240067729A1 (PALLEON PHARMACEUTICALS, published 2024)
Read-outs that look alike come from different tables or passages of the source.

How the values were obtained:
[1] = target: T1, cynomolgus PD-L1, his tagged (cPD-L1-his) (cynomolgus (Macaca fascicularis), UniProt G7PSE7 19-238); test: BLI (ForteBio Octet), cPD-L1-his
T1 construct: also called cyPD-L1-His; Cyno PD-L1
Method: (§1) Characterization of chimeric anti-PD-L1 antibodies. ForteBio octet binding of purified chimeric antibodies and recombinant hPD-L1-his and cPD-L1-his was measured. Chimeric human antibodies were captured on AHC (Anti-human IgG-Capture) Biosensor, hPD-L1-his or cPD-L1-his analytes were titrated from 100 nM in a 2× series dilution. The buffer reference was subtracted from the signal and aligned to the baseline. KD, Kon and Koff values were generated using 1:1 fitting model as described above. […]

[2] = target: T2, human PD-L1, his tagged (hPD-L1-his) (human, UniProt Q9NZQ7 19-238, limits assumed); test: BLI (ForteBio Octet), hPD-L1-his
T2 construct: also called huPD-L1-His; recombinant human PD-L1; not shown: his tag
Method: as §1

[3] = target: T2, human PD-L1, his tagged (hPD-L1-his); test: BLI (ForteBio Octet), hPD-L1-his; remark: listed apart in the source
Method: Characterization of chimeric anti-PD-L1 antibodies. ForteBio octet binding of purified chimeric antibodies and recombinant hPD-L1-his and cPD-L1-his was measured. Chimeric human antibodies were captured on AHC (Anti-human IgG-Capture) Biosensor, hPD-L1-his or cPD-L1-his analytes were titrated from 100 nM in a 2× series dilution. The buffer reference was subtracted from the signal and aligned to the baseline. KD, Kon and Koff values were generated using 1:1 fitting model as described above.
Selected h769 antibodies were tested in the blocking ELISA as described in Example 3 herein. […] Selected h769 humanized PD-L1 antibodies were characterized following removal of the deamidation motif in CDR-L3. FIG. 25 depicts the ForteBio octet binding of purified humanized antibodies and recombinant hPD-L1-his was measured.

[4] = target: T1, cynomolgus PD-L1, his tagged …; test: BLI (ForteBio Octet), mouse IgG on AMC sensor, cPD-L1-his analyte, 1:1 fit
Method: (§2) Screening of purified hybridoma antibodies. ForteBio octet binding of purified antibodies to recombinant hPD-L1-his and cPD-L1-his was measured. Mouse IgGs purified from hybridoma supernatant were captured on AMC (Anti-mouse IgG-Capture) Biosensor. hPD-L1-his or cPD-L1-his analytes were titrated from 100 nM in a 2× series dilution. The signal was subtracted with buffer reference and aligned to the baseline. KD, Kon and Koff values were generated using a 1:1 fitting model. […] The X-axes represent assay time in seconds, and the Y-axes represent binding signal on the biosensor. Each line represents the real time signal of antigen association and dissociation at the given antigen concentration in the assay (e.g., the top line represents the signal of the highest antigen concentration in the assay, the second top line represents the second highest concentration in the assay). The vertical dashed line represents the time point that the assay was moved from association step to the dissociation step. All the ForteBio/Octet assays were using standard/conventional settings and the graphs provided in the figures will be understood by one of skill in the art.

[5] = target: T2, human PD-L1, his tagged (hPD-L1-his); test: BLI (ForteBio Octet), mouse IgG on AMC sensor, hPD-L1-his analyte, 1:1 fit
Method: as §2

T2 sequence (Q9NZQ7 19-238 limits assumed): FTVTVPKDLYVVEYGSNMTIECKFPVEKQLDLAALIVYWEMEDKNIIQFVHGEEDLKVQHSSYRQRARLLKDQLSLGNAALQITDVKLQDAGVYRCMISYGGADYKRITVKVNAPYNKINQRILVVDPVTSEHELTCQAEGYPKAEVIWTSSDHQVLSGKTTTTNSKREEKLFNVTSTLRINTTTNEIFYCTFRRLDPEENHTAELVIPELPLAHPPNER
T1 sequence (G7PSE7 entry or part of it limits assumed, form in doubt): as the sequence (Q9NZQ7 19-238 limits assumed) above, with A33T, A34S, S62N, R68Q, Q82R, F173L, T185A, T192I, H215L counted along it

B1: h769-IF3 (humanized 769-hIgG1 variant) (antibody, V domains shown)
VH: EVQLVQSGAEVKKPGATVKISCKVSGFNIKDTYMHWVQQAPGKGLEWMGLIDPANDNTIYAEKFQGRVTITADTSTDTAYMELSSLRSEDTAVYYCAREGYGGSYGEGYWGQGTLVTVSS
VL: EIVMTQSPPTLSLSPGERVTLSCRASQSVSNDLSWYQQKPGQAPRLLIYYASIRFTGIPARFSGSGSGTDFTLTISSLQPEDFAVYYCQQDYNSPWTFGQGTKVEIK
[1]
  Kd: 2.92 nM
  koff: 0.000602 s⁻¹
  kon: 208000 M⁻¹ s⁻¹
[2]
  Kd: 2.64 nM
  koff: 0.000871 s⁻¹
  kon: 330000 M⁻¹ s⁻¹

B2: h769-N93 (humanized 769-hIgG1 variant keeping N93 in CDR-L3) (antibody, V domains shown)
VH: EVQLVQSGAEVKKPGATVKISCKVSGFNIKDTYMHWVQQAPGKGLEWMGLIDPANDNTIYAEKFQGRVTITADTSTDTAYMELSSLRSEDTAVYYCAREGYGGSYGEGYWGQGTLVTVSS
VL: EIVMTQSPPTLSLSPGERVTLSCRASQSVSNDLSWYQQKPGQAPRLLIYYASIRFTGIPARFSGSGSGTDFTLTISSLQPEDFAVYYCQQDYNSPWTFGQGTKVEIK
[3]
  koff: 0.00058 s⁻¹
  kon: 292000 M⁻¹ s⁻¹

B3: h769-tm3 (humanized 769-hIgG1 variant) (antibody, V domains shown)
VH: EVQLVQSGAEVKKPGATVKISCKVSGFNIKDTYMHWVQQAPGKGLEWMGLIDPANDNTIYAEKFQGRVTITADTSTDTAYMELSSLRSEDTAVYYCAREGYGGSYGEGYWGQGTLVTVSS
VL: EIVMTQSPPTLSLSPGERVTLSCRASQSVSNDLSWYQQKPGQAPRLLIYYASIRFTGIPARFSGSGSGTDFTLTISSLQPEDFAVYFCQQDYNSPWTFGQGTKVEIK
[1]
  Kd: 3.11 nM
  koff: 0.00065 s⁻¹
  kon: 211000 M⁻¹ s⁻¹
[2]
  Kd: 2.95 nM
  koff: 0.000904 s⁻¹
  kon: 311000 M⁻¹ s⁻¹

B4: h769-tm2 (humanized 769-hIgG1 variant) (antibody, V domains shown)
VH: EVQLVQSGAEVKKPGATVKISCKVSGFNIKDTYMHWVQQAPGKGLEWMGLIDPANDNTIYAEKFQGRVTITADTSTDTAYMELSSLRSEDTAVYYCAREGYGGSYGEGYWGQGTLVTVSS
VL: EIVMTQSPPTLSLSPGERVTLSCRASQSVSNDLSWYQQKPGQAPRLLIYYASIRFTGIPARFSGSGYGTDFTLTISSLQPEDFAVYYCQQDYNSPWTFGQGTKVEIK
[1]
  Kd: 3.01 nM
  koff: 0.000593 s⁻¹
  kon: 204000 M⁻¹ s⁻¹
[2]
  Kd: 2.48 nM
  koff: 0.000818 s⁻¹
  kon: 331000 M⁻¹ s⁻¹

B5: h769-N93A (humanized 769-hIgG1 variant, N93A in CDR-L3) (antibody, V domains shown)
VH: EVQLVQSGAEVKKPGATVKISCKVSGFNIKDTYMHWVQQAPGKGLEWMGLIDPANDNTIYAEKFQGRVTITADTSTDTAYMELSSLRSEDTAVYYCAREGYGGSYGEGYWGQGTLVTVSS
VL: EIVMTQSPPTLSLSPGERVTLSCRASQSVSNDLSWYQQKPGQAPRLLIYYASIRFTGIPARFSGSGSGTDFTLTISSLQPEDFAVYYCQQDYASPWTFGQGTKVEIK
notes: Human IgG1
[3]
  Kd: 1.46 nM
  koff: 0.000414 s⁻¹
  kon: 284000 M⁻¹ s⁻¹

B6: PAL771 (hybridoma 2D10.E2.B9) (antibody, V domains shown)
VH: EVQLQESGAELVKPGASVKLSCTASGFNIKDTYMHWVKQRPEQGLEWIGRIDPANGNTKYDPKFPGKATITADTSSNTAYLQLSSLTSEDAAVYYCARPFNYRFYDVYYFDYWGQGTTLTVST
VL: QIVLTQSPAIMSASPGEKVTMTCSASSSVSYMYWYQQKPGSSPRLLIYDTSNLASGVPLRFSGSGSGTSYSLTLSRMEAEDAATYYCQQWSTYPLTFGAGTKLELK
notes: Mouse IgG purified from hybridoma supernatant
[4]
  Kd: 1.15 nM
[5]
  Kd: 0.592 nM

B7: PAL771.2 (hybridoma 2D10.E2.H4) (antibody, V domains shown)
VH: EVQLQESGAELVKPGASVKLSCTASGFNIKDTYMHWVKQRPEQGLEWIGRIDPANGNTKYDPKFPGKATITADTSSNTAYLQLSSLTSEDAAVYYCARPFNYRFYDVYYFDYWGQGTTLTVST
VL: QIVLTQSPAIMSASPGEKVTMTCSASSSVSYMYWYQQKPGSSPRLLIYDTSNLASGVPLRFSGSGSGTSYSLTLSRMEAEDAATYYCQQWSTYPLTFGAGTKLELK
[4]
  Kd: 2.27 nM
